Assay results as given in patent publication US20250250357A1 (NANJING ZAIMING PHARMACEUTICAL, published 2025).
Blank lines part the entries; values can stand above or below the binder they belong to.

How the values were obtained:
[1] = molecular target: T1, human MSLN-R3-his protein (human, UniProt Q13421 487-598); test: ELISA, coated antigen; antibody 1 nM
T1 construct: also called human MSLN-R3 protein; hMSLN-R3-his; not shown: His tag

[2] = molecular target: T2, human MSLN-R3-3 polypeptide (human); test: ELISA, coated antigen; antibody 1 nM
T2 construct: also called human MSLN-R3-3 protein; hMSLN-R3-3

[3] = molecular target: T1, human MSLN-R3-his protein; test: ELISA, coated antigen; antibody 10 nM
[4] = molecular target: T2, human MSLN-R3-3 polypeptide; test: ELISA, coated antigen; antibody 10 nM
[5] = molecular target: T1, human MSLN-R3-his protein; test: ELISA, coated antigen; antibody 0.1 nM
[6] = molecular target: T1, human MSLN-R3-his protein; test: ELISA, coated antigen; antibody 100 nM
[7] = molecular target: T2, human MSLN-R3-3 polypeptide; test: ELISA, coated antigen; antibody 0.1 nM
[8] = molecular target: T2, human MSLN-R3-3 polypeptide; test: ELISA, coated antigen; antibody 100 nM
[9] = molecular target: T1, human MSLN-R3-his protein; test: ELISA, coated antigen; antibody 0.01 nM
[10] = molecular target: T2, human MSLN-R3-3 polypeptide; test: ELISA, coated antigen; antibody 0.01 nM
[11] = molecular target: T1, human MSLN-R3-his protein; test: ELISA, coated antigen; antibody 0.001 nM
[12] = molecular target: T2, human MSLN-R3-3 polypeptide; test: ELISA, coated antigen; antibody 0.001 nM
[13] = molecular target: T1, human MSLN-R3-his protein; test: ELISA, coated antigen; antibody 0.0001 nM
[14] = molecular target: T2, human MSLN-R3-3 polypeptide; test: ELISA, coated antigen; antibody 0.0001 nM
[15] = molecular target: T1, human MSLN-R3-his protein; test: ELISA, coated antigen; no antibody (blank, column 'none')
[16] = molecular target: T2, human MSLN-R3-3 polypeptide; test: as above
[17] = molecular target: T3, human MSLN protein endogenously expressed on OVCAR3 tumor cells (human, UniProt Q13421 296-598); test: FACS on OVCAR3 cells
T3 construct: whole, on cells; Endogenous target on OVCAR3 cells; kept apart from the recombinant full-length construct; also called mesothelin

[18] = molecular target: T4, human MSLN full-length protein (NCBI: AAH09272.1) expressed on HEK293T-hMSLN-B8 cells (human, UniProt Q13421 296-598); test: FACS on HEK293T-hMSLN-B8 cells
T4 construct: Whole encoded precursor

[19] = molecular target: T5, human MSLN-R3 protein (Met487-Ser606 of NCBI AAH09272.1) expressed on HEK293T-hMSLN-R3 cells (human, UniProt Q13421 487-606); test: FACS on HEK293T-hMSLN-R3 cells
T5 construct: also called Region3

[20] = molecular target: T6, monkey MSLN full-length protein (NCBI: XP_028696439.1) expressed on HEK293T-monkey MSLN cells (monkey); test: FACS on HEK293T-monkey MSLN cells
T6 construct: Whole encoded precursor
T6 chain: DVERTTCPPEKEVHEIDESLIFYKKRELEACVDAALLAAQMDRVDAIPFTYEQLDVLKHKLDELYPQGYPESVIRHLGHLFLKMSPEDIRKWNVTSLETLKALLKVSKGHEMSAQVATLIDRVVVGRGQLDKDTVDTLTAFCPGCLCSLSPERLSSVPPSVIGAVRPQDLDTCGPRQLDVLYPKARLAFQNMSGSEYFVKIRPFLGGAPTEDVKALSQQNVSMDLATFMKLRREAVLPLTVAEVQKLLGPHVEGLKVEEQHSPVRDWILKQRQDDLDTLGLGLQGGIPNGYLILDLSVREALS

T5 sequence (Q13421 495-614): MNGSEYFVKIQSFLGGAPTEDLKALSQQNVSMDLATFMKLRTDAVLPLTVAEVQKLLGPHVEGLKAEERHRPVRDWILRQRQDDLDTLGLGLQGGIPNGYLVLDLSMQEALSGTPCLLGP
T4 sequence (Q13421 other isoform, or with tags, fused parts or gaps limits assumed): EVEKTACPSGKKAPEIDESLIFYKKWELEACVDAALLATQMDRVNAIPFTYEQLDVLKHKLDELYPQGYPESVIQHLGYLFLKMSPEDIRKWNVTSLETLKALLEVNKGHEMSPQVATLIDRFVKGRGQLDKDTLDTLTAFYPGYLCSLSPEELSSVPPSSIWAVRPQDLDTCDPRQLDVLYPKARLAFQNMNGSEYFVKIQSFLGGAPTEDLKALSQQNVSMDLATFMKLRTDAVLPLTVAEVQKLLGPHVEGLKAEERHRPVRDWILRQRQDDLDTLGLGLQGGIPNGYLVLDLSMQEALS
T3 sequence (Q13421 other isoform, or with tags, fused parts or gaps): as the sequence (Q13421 other isoform, or with tags, fused parts or gaps limits assumed) above, with P14R counted along it
T1 sequence (Q13421 495-606): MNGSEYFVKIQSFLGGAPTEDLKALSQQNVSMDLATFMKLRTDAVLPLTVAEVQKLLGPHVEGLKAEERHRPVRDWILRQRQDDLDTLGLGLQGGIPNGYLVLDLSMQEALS

B1: S009-F3.45.21 (antibody, human IgG1, kappa, V domains shown)
VH: DVQLQESGPGLVKPSQSLSLTCSVTGDSITSGYYWNWIRQFPGNKLEWMGFIRFDGTNNYNPSLKNRISITRDTSKNQFFLKLNSVTTEDTATYYCAREGSYAPAWFAYWGQGTLVTVSA
VL: QIVLTQSPAIMSASPGEKVTMTCSASSSLSYMYWYQQKPGSSPRLLIYDTSNLASGVPVRFSGSGSGTSYSLTISRMEAEDAATYYCQQWSSYPPTFGGGTKLEIKR
notes: Human-murine chimeric antibody, human IgG1/kappa constant regions
OD450 [1]: 0.05 OD450
OD450 [2]: 0.07 OD450
OD450 [3]: 0.07 OD450
OD450 [4]: 0.08 OD450
OD450 [5]: 0.06 OD450
OD450 [6]: 0.09 OD450
OD450 [7]: 0.08 OD450
OD450 [8]: 0.11 OD450
OD450 [9]: 0.07 OD450
OD450 [10]: 0.07 OD450
OD450 [11]: 0.24 OD450
OD450 [12]: 0.25 OD450
OD450 [13]: 0.09 OD450
OD450 [14]: 0.1 OD450
OD450 [15]: 0.09 OD450
OD450 [16]: 0.07 OD450

B4: S009-F3.51.8 (antibody, human IgG1, kappa, V domains shown)
VH: QVQLQQSGAELVRPGASVTLSCKASGYTFTDYEMHWVKQTPVHGLEWIGGFDPETGGTAHNQKFKGKAILTADKSSSTAYMELRSLTSEDSAVYYCSNYGSIWGDCWGQGTSVTVSS
VL: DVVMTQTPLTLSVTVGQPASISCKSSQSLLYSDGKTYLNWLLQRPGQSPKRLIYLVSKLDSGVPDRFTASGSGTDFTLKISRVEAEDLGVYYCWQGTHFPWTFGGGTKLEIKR
notes: as for B1
OD450 [1]: 1.83 OD450
OD450 [2]: 1.8 OD450
OD450 [3]: 1.91 OD450
OD450 [4]: 1.92 OD450
OD450 [5]: 1.55 OD450
OD450 [6]: 2.18 OD450
OD450 [7]: 1.42 OD450
OD450 [8]: 2.04 OD450
OD450 [9]: 0.41 OD450
OD450 [10]: 0.51 OD450
OD450 [11]: 0.12 OD450
OD450 [12]: 0.13 OD450
OD450 [13]: 0.09 OD450
OD450 [14]: 0.09 OD450
OD450 [15]: 0.09 OD450
OD450 [16]: 0.07 OD450

Now from value to binder:

Maximum mean fluorescence intensity [17]: 3360
EC50 [18]: 6.07 nM
Maximum mean fluorescence intensity [18]: 102000
EC50 [19]: 1.97 nM
Maximum mean fluorescence intensity [19]: 14200
EC50 [20]: 3.42 nM
Maximum mean fluorescence intensity [20]: 41100
B2: S009-F4-127.10 (antibody, human IgG1, kappa, V domains shown)
VH: EVQLQQSGPVLVKPGASVKMSCKASGYTFTDYYMNWVKQSHGKSPEWIGVINPYNDVISYNQKFKGKATLTVDKSSSTAYMELNSLTSEDSAVYYCANYGSSYYAMDYWGQGTSVTVSS
VL: DVVMTQTPLSLSVSLGDQASISCRSSQSLVHSNGNTYLQWSLQKPGQSPNLLIYKVSNRFSGVPDRFSGSGSGTDFTLKISRVEAEDLGVYFCSQTTHVPFTFGGGTKLEIRR
notes: human-murine chimeric antibody, human IgG1/kappa constant regions

EC50 [17]: 0.65 nM
Maximum mean fluorescence intensity [17]: 7060
EC50 [18]: 3.06 nM
Maximum mean fluorescence intensity [18]: 113000
Maximum mean fluorescence intensity [19]: 84
binding result [19]: no binding
EC50 [20]: 0.37 nM
Maximum mean fluorescence intensity [20]: 29900
B3: S009-F4-94.15 (antibody, human IgG1, kappa, V domains shown)
VH: QVQLHQPGAELVRPGSSVKLSCKASGYTFTSYWVHWVQQRPRQGLEWIGNIDPSDSEIHYNQKFKDKATLTVDKSSSTAYIHLSRLTSEDSAIYYCVRGGVPWFAYWGQGTLVTVSA
VL: QIVLTQSPAIMSASPGEKVTLTCSASSSVSSTYLYWFQQKPGSSPKVWIYSTSNLASGVPARFSGSGSGTSYSLTISSMEAEDAASYFCHQWISYPYTFGGGTKLEIKR
notes: as for B2

OD450 [1]: 1.77 OD450
OD450 [2]: 1.87 OD450
OD450 [3]: 1.95 OD450
OD450 [4]: 2.01 OD450
OD450 [5]: 1.51 OD450
OD450 [6]: 2.31 OD450
OD450 [7]: 1.54 OD450
OD450 [8]: 2.33 OD450
OD450 [9]: 0.48 OD450
OD450 [10]: 0.57 OD450
OD450 [11]: 0.12 OD450
OD450 [12]: 0.18 OD450
OD450 [13]: 0.08 OD450
OD450 [14]: 0.09 OD450
OD450 [15]: 0.1 OD450
OD450 [16]: 0.09 OD450
B5: S009-F3.23.1 (antibody, human IgG1, kappa, V domains shown)
VH: QVQLQQSGADLVRPGASVTLSCKASGYTFTDYEMHWVKQTPVHGLEWIGAIDPETGDTVYNQNFKGKAILTADKSSSTAYMELRSLTSEDSAVYYCTRYGYDWGWGQGTTLTVSS
VL: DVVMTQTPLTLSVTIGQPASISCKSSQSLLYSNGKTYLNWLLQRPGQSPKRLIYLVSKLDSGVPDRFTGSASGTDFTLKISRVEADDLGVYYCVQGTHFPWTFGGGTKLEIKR
notes: as for B1
